The results in this text go back to paper PMC10295924.

The target of this assay is SFB-β-catenin (UniProt P35222). Briefly: pull-down; HEK293T cells co-transfected with MYC-LEF1, SFB-β-catenin and OTUD7B-V5 or GFP-V5, treated with 20 mM lithium chloride for 24 h; cytoplasmic and nuclear lysates pulled down with S-protein beads; immunoblot, bands quantified with ImageJ. A general note: A western blot detects proteins with antibodies after separation by electrophoresis.
UniProt P35222, sequence (P35222 whole entry): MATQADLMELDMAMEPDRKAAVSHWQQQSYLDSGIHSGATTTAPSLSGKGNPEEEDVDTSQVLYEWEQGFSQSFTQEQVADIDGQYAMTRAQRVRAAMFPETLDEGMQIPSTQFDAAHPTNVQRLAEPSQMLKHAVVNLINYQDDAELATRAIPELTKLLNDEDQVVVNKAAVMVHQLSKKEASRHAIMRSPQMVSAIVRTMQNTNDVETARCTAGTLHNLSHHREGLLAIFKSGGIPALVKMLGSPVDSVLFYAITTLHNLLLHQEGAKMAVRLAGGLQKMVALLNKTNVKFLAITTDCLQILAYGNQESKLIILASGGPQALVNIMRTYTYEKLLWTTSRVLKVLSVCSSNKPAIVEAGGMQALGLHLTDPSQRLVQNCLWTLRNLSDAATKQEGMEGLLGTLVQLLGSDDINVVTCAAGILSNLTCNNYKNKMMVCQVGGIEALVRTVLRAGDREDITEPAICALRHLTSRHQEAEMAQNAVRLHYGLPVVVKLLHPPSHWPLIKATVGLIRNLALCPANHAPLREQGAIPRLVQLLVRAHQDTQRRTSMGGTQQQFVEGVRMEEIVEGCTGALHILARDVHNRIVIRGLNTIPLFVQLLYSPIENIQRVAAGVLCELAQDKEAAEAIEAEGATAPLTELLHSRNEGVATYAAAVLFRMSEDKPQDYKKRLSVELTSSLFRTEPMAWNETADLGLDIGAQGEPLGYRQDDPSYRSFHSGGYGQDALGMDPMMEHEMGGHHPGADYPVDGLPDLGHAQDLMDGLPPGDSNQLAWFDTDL

In the case of “MYC-LEF1 (Lymphoid enhancer-binding factor 1), full length (natural protein)”, the fold increase of β-catenin-bound LEF1 in the nucleus with OTUD7B-V5 against GFP-V5 worked out at 4.82 fold.
